Assay results reported in patent publication US20230374144A1 (STAIDSON BEIJING BIOPHARMACEUTICAL, published 2023).
Where a chain is given by its changes, count along the chain named.

B1: C27 (antibody, human IgG4, V domains shown)
VH: EVQLLESGGGLVQPGGSLRLSCAASGFTLSSYAMHWVRQAPGKGLEYVSGISSNGGSTYYANSVKGRFTISRDNPKNTLFLQMSSLRAEDTAVYYCVRVKVGYRGGMDVWGQGTTVTVSS
VL: ETTLTQSPDTLPLSPGDRASLSCRASQSVSSAYLAWYQQKPGQAPRLLIYGTSRRATGVPGRFSGSGSGTDFTLTISRLEPEDFAVYYCQLYGSSSVTFGQGTKLEIK
notes: also called parent antibody C27; lead parent antibody
B2: C27-7-33 (antibody, human IgG4, V domains shown)
VH: B1 VH with S53P, N54S, G56V, G102K
VL: EIVLTQSPGTLSLSPGERATLSCRASQGISSAYLAWYQQKPGQAPRLLIYGTSRRATGIPDRFSGSGSGTDFTLTISRLEPEDFAVYYCQLYGATSVTFGQGTKLEIK
B3: C27-82-58 (antibody, human IgG4, V domains shown)
VH: B1 VH with S53G, G55S, G56A, V101L, G102K
VL: B2 VL with G28D
B4: C27-78-78 (antibody, human IgG4, V domains shown)
VH: B1 VH with S53P, N54S, G55S, G56A, V101S, G102K
VL: B2 VL with G28S, S31T, T95S
B5: C27-33-33 (antibody, human IgG4, V domains shown)
VH: B1 VH with N54S, G56S, G102A
VL: B2 VL
B6: C27-24-56 (antibody, human IgG4, V domains shown)
VH: B1 VH with S53P, N54T, G55S, G102R
VL: B2 VL with G28S, I29V, T95S
B7: C27-Y2-Y2 (antibody, human IgG4, V domains shown)
VH: B1 VH with S53Y, N54S, G55S, G56A, G102R
VL: B2 VL with T5P, I29V, A94S
B8: C27-47-56 (antibody, human IgG4, V domains shown)
VH: B1 VH with S53P, N54T, G56T, V101G, G102A
VL: B2 VL with G28S, I29V, T95S
B9: C27-6-33 (antibody, human IgG4, V domains shown)
VH: B1 VH with S53P, N54S, G56S, V99S, G102R
VL: B2 VL

target: T1, recombinant human IL-4Rα (extracellular domain, tagged) (human, UniProt P24394 26-232); assay: SPR, Biacore T200; antibody (human IgG4) on the sensor chip, human IL-4Rα at 0.625-12.5 nM
T1 construct: it is written second here only for want of that; also called hIL-4Rα; not shown: His-tag or other conventionally used tag
Method: The binding affinity of the anti-IL-4Rα antibodies (reformatted as human IgG4) to human IL-4Rα was characterized using Biacore T200 (GE). The full-length anti-IL-4Rα antibodies were stabilized on sensor chip CMS. The affinities for human IL-4Rα at various concentrations were measured. […] Using the SPR technology, the association and dissociation rates were measured, and binding affinity was determined.

Binder	Kd [pM]	koff [s⁻¹]	kon [M⁻¹ s⁻¹]
B1	17600	0.0127	719000
B2	1010	0.000134	134000
B3	3670	0.000557	152000
B4	3620	0.000416	115000
B5	3740	0.000447	119000
B6	1860	0.000173	92700
B7	5600	0.00078	139000
B8	1820	0.000195	107000
B9	2120	0.00017	80400

target: T2, human IL-4Rα on cells (human, UniProt P24394 26-825); assay: cell-based or functional assay

Binder	IC50(nM), inhibition of IL-13 (10 ng/mL) dependent TF-1 cell proliferation [nM]
B2	0.0902
B8	0.0849

target: T2, human IL-4Rα on cells; assay: cell-based or functional assay; remark: another data set of the same source

Binder	IC50(nM), inhibition of hIL-13 (20 ng/mL) dependent CD23 upregulation on B cells in human PBMCs [nM]
B2	0.179
B8	0.698

target: T2, human IL-4Rα on cells; assay: cell-based or functional assay; remark: another data set of the same source

Binder	IC50(nM), inhibition of TARC release in human PBMCs induced by hIL-4 (32 ng/mL) [nM]
B2	0.916
B8	1.2

target: T2, human IL-4Rα on cells; assay: cell-based or functional assay; remark: another data set of the same source

Binder	IC50(nM), inhibition of IL-4 (2 ng/mL) dependent TF-1 cell proliferation [nM]
B2	0.0311
B8	0.0509

target: T2, human IL-4Rα on cells; assay: cell-based or functional assay; remark: another data set of the same source

Binder	IC50(nM), neutralization of hIL-13 (4 ng/ml), HEK-Blue IL-4/IL-13 STAT6-SEAP reporter cells [nM]
B2	0.0343
B6	0.0482
B8	0.0966
B9	0.0446

target: T2, human IL-4Rα on cells; assay: cell-based or functional assay; remark: another data set of the same source

Binder	IC50(nM), inhibition of TARC release in human PBMCs induced by hIL-13 (200 ng/mL) [nM]
B2	0.0576
B8	0.0913

target: T3, IL-4R with mouse Fc-tag (human, UniProt P24394 26-232); assay: competitive ELISA: antibody dilutions with 0.5 µg/mL IL-4R-mouse Fc on plate-captured biotinylated IL-4, anti-mouse-Fc-HRP
T3 construct: not shown: mouse Fc-tag
Method: Competitive ELISA: The second assay was designed to identify the anti-IL-4Rα antibodies that were capable of inhibiting the binding of hIL-4 to hIL-4Rα, as measured by competitive ELISA. Briefly, a 96-well plate was coated with 100 μL, 2.5 μg/mL SA (Streptavidin) solution, and incubated overnight at 4° C., followed by washed with TBST. Biotinylated IL-4 with the final concentration of 2 μg/mL was added into the plate and incubated at 37° C. for 1 hour. Then the plate was washed with TBST. The anti-IL-4Rα antibody samples were first diluted to 10 μg/mL, and 1004, of the sample was added to the first row of wells. 10 μg/mL anti-IL-4Rα antibody samples were then serially diluted at a 1:2 ratio and added to each of the remaining rows of wells. 504 of 0.5 μg/mL IL-4R with mouse Fc-tag was added to each well. After incubating for 1 hour at 37° C., the wells were washed with TBST 6 times. 100 µL of anti-mouse-Fc-HRP (1:10,000) was then added to each well and incubated for 1 hour at 37° C. The wells were washed with TBST 6 times before adding 1004/well of TMB, and incubated for 5-10 minutes at 37° C. 2M H₂SO₄ was used to stop the reaction. The ELISA results (OD450) were read, and the binding curves were generated by GraphPad Prism 5 software (GraphPad Software). Reference antibody Dupilumab (Regeneron, anti-IL-4Rα antibody) and AMG317 (Amgen, anti-IL-4Rα antibody) were used as positive controls, Human IgG4, kappa Isotype Control (Cat #HG4K, Sino Biological Inc.) was used as negative control, abbreviated as Human IgG4 in FIG. 1.

Binder	IC50 [µg/mL]
B2	0.0582
B6	0.0632
B8	0.0651
B9	0.0781

target: T2, human IL-4Rα on cells; assay: cell-based or functional assay; remark: another data set of the same source

Binder	IC50(nM), neutralization of hIL-4 (1.2 ng/ml), HEK-Blue IL-4/IL-13 STAT6-SEAP reporter cells [nM]
B1	17.9
B2	0.0541
B3	0.283
B4	0.103
B5	0.195
B6	0.0632
B7	0.138
B8	0.103
B9	0.0537

target: T2, human IL-4Rα on cells; assay: cell-based or functional assay; remark: another data set of the same source

Binder	IC50(nM), inhibition of hIL-4 (1 ng/mL) dependent CD23 upregulation on B cells in human PBMCs [nM]
B2	0.0303
B8	0.0814
